Reference: IntAct's records for PubMed 30488537

B1: Prelamin-A/C (Homo sapiens), P02545 (parent)
chain: METPSQRRATRSGAQASSTPLSPTRITRLQEKEDLQELNDRLAVYIDRVRSLETENAGLRLRITESEEVVSREVSGIKAAYEAELGDARKTLDSVAKERARLQLELSKVREEFKELKARNTKKEGDLIAAQARLKDLEALLNSKEAALSTALSEKRTLEGELHDLRGQVAKLEAALGEAKKQLQDEMLRRVDAENRLQTMKEELDFQKNIYSEELRETKRRHETRLVEIDNGKQREFESRLADALQELRAQHEDQVEQYKKELEKTYSAKLDNARQSAERNSNLVGAAHEELQQSRIRIDSLSAQLSQLQKQLAAKEAKLRDLEDSLARERDTSRRLLAEKEREMAEMRARMQQQLDEYQELLDIKLALDMEIHAYRKLLEGEEERLRLSPSPTSQRSRGRASSHSSQTQGGGSVTKKRKLESTESRSSFSQHARTSGRVAVEEVDEEGKFVRLRNKSNEDQSMGNWQIKRQNGDDPLLTYRFPPKFTLKAGQVVTIWAAGAGATHSPPTDLVWKAQNTWGCGNSLRTALINSTGEEVAMRKLVRSVTVVEDDEDEDGDDLLHHHHGSHCSSSGDPAEYNLRSRTVLCGTCGQPADKASASGSGAQVGGPISSGSSASSVTVTRSYRSVGGSGGGSFGDNLVTRSYLLGNSSPRTQSPQNCSIM
partner: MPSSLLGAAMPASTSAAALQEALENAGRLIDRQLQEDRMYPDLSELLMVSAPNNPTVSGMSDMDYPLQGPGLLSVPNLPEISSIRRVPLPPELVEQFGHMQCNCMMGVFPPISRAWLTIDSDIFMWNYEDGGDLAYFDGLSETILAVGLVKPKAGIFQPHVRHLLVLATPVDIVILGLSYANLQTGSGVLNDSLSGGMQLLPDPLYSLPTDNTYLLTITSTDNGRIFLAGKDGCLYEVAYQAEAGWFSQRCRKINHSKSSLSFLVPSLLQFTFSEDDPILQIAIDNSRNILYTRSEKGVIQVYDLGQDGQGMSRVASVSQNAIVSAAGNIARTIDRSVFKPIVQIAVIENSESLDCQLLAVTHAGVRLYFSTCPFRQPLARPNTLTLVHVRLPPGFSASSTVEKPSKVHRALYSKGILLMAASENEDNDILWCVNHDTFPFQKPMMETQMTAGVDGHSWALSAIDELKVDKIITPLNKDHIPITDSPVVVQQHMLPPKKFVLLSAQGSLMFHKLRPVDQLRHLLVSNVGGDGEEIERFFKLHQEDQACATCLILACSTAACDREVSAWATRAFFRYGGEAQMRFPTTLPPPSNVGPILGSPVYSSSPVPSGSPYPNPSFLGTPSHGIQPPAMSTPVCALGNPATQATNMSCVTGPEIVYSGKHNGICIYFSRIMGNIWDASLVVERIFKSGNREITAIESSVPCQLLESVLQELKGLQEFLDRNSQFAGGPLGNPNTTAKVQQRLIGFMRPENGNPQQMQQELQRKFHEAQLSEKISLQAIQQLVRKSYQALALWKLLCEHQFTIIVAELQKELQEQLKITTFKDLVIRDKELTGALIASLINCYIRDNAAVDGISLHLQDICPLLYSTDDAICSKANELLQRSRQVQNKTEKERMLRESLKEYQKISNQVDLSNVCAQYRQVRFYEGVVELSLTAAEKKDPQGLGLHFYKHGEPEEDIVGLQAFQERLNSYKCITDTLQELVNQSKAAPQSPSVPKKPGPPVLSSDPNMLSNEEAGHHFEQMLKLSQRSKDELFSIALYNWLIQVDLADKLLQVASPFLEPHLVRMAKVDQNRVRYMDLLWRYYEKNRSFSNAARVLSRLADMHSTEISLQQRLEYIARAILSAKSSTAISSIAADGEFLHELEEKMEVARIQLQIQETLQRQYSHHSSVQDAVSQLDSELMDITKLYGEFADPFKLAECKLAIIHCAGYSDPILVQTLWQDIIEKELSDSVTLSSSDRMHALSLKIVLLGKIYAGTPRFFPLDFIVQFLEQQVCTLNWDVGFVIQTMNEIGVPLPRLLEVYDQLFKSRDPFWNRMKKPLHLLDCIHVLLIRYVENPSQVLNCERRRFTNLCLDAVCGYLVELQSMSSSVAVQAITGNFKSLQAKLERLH

Variants of: B1
Conditions: with nu155_human NUP155, O75694

| Variant | effect of a mutation on the interaction |
| --- | --- |
| R399C | decreasing interaction strength |

Variants of: B1
Conditions: with nu155_human NUP155, O75694
Remark: another data set of the same source

| Variant | effect of a mutation on the interaction |
| --- | --- |
| R399C | with no effect |
